In patent publication US20140086913A1 (Gilead, published 2014):

Columns and labels:
[1] = molecular target: DDR1 with a ProLink Tag (PK) in engineered U20S cells (DiscoveRx), Q08345; assay: cell-based or functional assay
[2] = molecular target: T1, human ECD-DDR1-His protein (human, UniProt Q08345 21-416); assay: ELISA, coated antigen, apparent KD
T1 construct: also called huDDR1-ECD-His; DDR1ECD-6Xhis; not shown: His tag
Outline: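 Plates coated overnight at 4° C with 2 μg/mL purified tagged DDR1 ECD protein, BSA-blocked; serially diluted murine anti-DDR1 mAbs bound 1 hr at room temperature, detected with anti-mouse IgG-HRP and TMB (OD 450). Apparent KD taken as C-parameter of 4-parameter logistic fit of OD versus antibody concentration.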

mouse ECD-DDR1-Fc = molecular target: T2, mouse ECD-DDR1-Fc (mouse; human, UniProt Q03146 22-414); assay: ELISA, coated antigen
T2 construct: also called mouse DDR1-ECD; wild-type mouse DDR1-ECD; not shown: human IgG1 Fc of the vector pFuse-hIgG1-Fc1 (Invivogen)
T2 sequence: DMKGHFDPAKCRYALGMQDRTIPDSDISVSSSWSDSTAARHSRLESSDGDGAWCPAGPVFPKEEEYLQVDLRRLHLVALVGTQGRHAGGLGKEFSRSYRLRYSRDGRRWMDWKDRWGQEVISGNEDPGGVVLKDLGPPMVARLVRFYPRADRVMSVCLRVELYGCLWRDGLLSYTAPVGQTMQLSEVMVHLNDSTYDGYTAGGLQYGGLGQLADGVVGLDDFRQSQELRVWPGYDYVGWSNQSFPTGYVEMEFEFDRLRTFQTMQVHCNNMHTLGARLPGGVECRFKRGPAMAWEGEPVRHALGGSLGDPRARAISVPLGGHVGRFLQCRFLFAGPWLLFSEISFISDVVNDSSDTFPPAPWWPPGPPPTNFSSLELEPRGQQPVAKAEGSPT
Protocol: (§1) In this study, ELISA was used to determine the affinity of murine anti-DDR1 monoclonal antibodies to the extracellular domain (ECD) of either human or murine DDR1. A 96-well MaxiSorb ELISA plates (Nunc) were coated with 2 μg/mL of one of three purified recombinant tagged proteins: human ECD-DDR1-His protein, human ECD-DDR1-Fc, or mouse ECD-DDR1-Fc overnight at 4° C. The next day, the plates were blocked with 5% bovine serum albumin (BSA, Jackson Immunoresearch) prior to the addition of serially diluted anti-DDR1 monoclonal antibodies. Antibodies were incubated for 1 hr at room temperature. The binding of antibody to the antigen was detected by incubating samples with anti-mouse IgG-HRP (horse radish peroxidase) secondary detection antibody (Jackson Immunoresearch) for 1 hr. After a washing step, 3,3′,5,5″-tetramethylbenzidine (TMB) reagent was added for HRP to produce a colorimetric signal. The reaction was stopped by addition of 1M hydrochloric acid after 2 minutes and measured for absorbance (optical density, OD) at 450λ on a Molecular Devices plate reader. The OD values were plotted against antibody concentration and fitted using a using 4-parameter logistic equation in SoftMax software (Molecular Devices). The apparent affinity constant (KD) was taken from the C-parameter of the equation (y=(A−D)/(1+(x/C)̂B)+D). The apparent affinity constants were summarized (in some cases shown as average values) in Table 10 below. Lower value indicates higher binding affinity of the antibody to the antigen.

[3] = molecular target: DDR1 endogenously expressed on human cancer cell lines (T47D, HCT-116, A431) (human) (UniProt Q08345); assay: flow cytometry, HCT116 cells
[4] = molecular target: DDR1 endogenously expressed on human cancer cell lines (T47D, HCT-116, A431) (human) (UniProt Q08345); assay: cell-based or functional assay
[5] = molecular target: T3, human DDR2 stably expressed on HEK293 cells (human, UniProt Q16832 22-855); assay: flow cytometry, HEK293/hDDR2
T3 construct: whole, on cells; also called hDDR2
T3 sequence (looked up): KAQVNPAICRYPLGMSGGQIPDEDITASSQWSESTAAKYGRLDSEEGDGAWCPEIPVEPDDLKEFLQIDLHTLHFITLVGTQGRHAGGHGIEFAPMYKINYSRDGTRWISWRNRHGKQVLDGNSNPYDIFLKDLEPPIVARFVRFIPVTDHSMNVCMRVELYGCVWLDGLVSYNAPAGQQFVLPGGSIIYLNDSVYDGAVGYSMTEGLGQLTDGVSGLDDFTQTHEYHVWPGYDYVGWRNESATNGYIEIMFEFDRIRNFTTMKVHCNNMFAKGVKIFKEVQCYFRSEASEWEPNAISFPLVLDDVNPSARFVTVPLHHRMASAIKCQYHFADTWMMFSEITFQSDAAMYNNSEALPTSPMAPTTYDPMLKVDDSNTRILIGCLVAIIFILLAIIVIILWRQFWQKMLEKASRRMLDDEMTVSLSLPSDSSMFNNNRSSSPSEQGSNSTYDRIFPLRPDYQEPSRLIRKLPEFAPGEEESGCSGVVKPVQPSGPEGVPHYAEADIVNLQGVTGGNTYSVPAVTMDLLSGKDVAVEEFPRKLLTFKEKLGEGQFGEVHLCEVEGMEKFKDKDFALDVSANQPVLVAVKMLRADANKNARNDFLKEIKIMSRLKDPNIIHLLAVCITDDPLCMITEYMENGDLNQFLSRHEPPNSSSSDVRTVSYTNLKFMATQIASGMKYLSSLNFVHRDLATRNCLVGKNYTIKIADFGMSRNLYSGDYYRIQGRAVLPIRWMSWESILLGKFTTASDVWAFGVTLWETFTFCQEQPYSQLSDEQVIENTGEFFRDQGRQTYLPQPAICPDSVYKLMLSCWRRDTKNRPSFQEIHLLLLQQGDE
Outline: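 Anti-DDR1 mAbs or isotype controls (2 μg per 1×10⁶ cells) were incubated with the stably transfected HEK293 cells at 4 °C for 1 hr, then detected with anti-IgG-PE at 4 °C for 1 hr. Binding was read as flow-cytometry MFI, with vector-only HEK293 background subtracted.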

[6] = molecular target: DDR1 endogenously expressed on human cancer cell lines (T47D, HCT-116, A431) (human) (UniProt Q08345); assay: flow cytometry, T47D cells
[7] = molecular target: T4, DDR1ECD-Fc (R&D Systems, Catalog #2396-DR) (human, UniProt Q08345 21-416); assay: ELISA, coated antigen, apparent KD; human ECD-DDR1-Fc coated on the plate, not the His-tagged or mouse antigen
T4 construct: range 21-416; construct as described for the bought immunogen; also called human ECD-DDR1-Fc; Fc-ECD-DR1; not shown: human IgG1, Pro100-Lys330
Protocol: as §1, with “The apparent affinity constants were summarized (in some cases shown as average values) in Table 10 below. Lower value indicates higher binding affinity of the antibody to the antigen.” left out

[8] = molecular target: human DDR1 (isoform B) stably expressed on HEK293 cells (human) (UniProt Q08345); assay: flow cytometry, HEK293/hDDR1
Chain of human DDR1 (isoform B) stably expressed on HEK293 cells (human) (Q08345 19-913): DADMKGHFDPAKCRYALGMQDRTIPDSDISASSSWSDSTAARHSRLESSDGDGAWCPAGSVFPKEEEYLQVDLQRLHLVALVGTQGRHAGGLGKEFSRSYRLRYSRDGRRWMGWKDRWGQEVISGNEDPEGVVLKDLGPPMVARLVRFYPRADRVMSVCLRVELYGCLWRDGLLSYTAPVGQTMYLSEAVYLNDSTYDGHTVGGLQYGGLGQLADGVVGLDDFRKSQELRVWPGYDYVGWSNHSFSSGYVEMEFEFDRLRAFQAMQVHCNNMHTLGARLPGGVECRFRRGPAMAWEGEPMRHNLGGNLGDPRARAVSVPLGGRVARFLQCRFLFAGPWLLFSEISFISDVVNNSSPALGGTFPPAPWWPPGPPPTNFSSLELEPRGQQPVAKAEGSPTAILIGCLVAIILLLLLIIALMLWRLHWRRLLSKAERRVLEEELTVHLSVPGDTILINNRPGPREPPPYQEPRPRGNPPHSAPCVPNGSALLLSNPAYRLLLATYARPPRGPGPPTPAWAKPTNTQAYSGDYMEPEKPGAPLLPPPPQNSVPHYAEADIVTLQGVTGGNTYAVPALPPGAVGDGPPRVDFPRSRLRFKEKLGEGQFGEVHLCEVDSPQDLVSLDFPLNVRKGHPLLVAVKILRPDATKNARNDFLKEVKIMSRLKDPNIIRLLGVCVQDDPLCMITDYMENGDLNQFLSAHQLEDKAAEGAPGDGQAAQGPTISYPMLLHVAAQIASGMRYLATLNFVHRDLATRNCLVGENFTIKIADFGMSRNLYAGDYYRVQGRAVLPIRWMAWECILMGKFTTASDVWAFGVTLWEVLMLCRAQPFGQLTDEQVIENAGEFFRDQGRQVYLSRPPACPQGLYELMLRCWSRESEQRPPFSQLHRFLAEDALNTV

Mean EC50, DDR1 Tyr513 phosphorylation assay (U20S) [1]: 4.5 nM
Kd [2]: 0.233 nM
binding result (mouse ECD-DDR1-Fc): no binding
MFI [3]: 1010 MFI
EC50, DDR1 phospho-specific ELISA (T47D) [4]: 1.07 nM
EC50, cluster formation assay (A431 cells) [4]: 9.72 nM
Maximal inhibition, DDR1 phospho-specific ELISA (T47D) [4]: 100%
NPI of cluster formation at 66 nM (A431 cells) [4]: 102%
MFI [5]: 170 MFI
MFI [6]: 3590 MFI
Kd [7]: 0.268 nM
MFI [8]: 7240 MFI
B1: AB2002 (antibody, V domains shown)
VH: EVNLVESGGGLVKPGGSLKLSCAASGFTFSTYAMSWVRQTPEKRLEWVASISSGGITHYPDSMKGRFTVSRDNARNILYLQMRSLRSEDTAKYYCARGRSSMIPDYWGQGTSVSVSS
VL: DIVMTQSHKFMSTSVGDRVSITCKASQDVGTAVAWYQQKPGQSPKLLIYWASTRHTGVPDRFTGSGSGTDFTLTISNVQSEDLADYFCQQYSTYPLTFGAGTKLELKR
notes: mouse hybridoma mAb
